The term stoichiometry N denotes the number of molecules, sites or subunits per partner or assembly.

Among the data in publication PMC9005620, “The crystal structure of iC3b-CR3 αI reveals a modular recognition of the main opsonin iC3b by the CR3 integrin receptor” (Nature Communications, 2022) are Kd and stoichiometry N values, retold here.

The target of assay [1] is iC3b (human). The assay can be described thus: SPR; iC3b immobilised on a CM5 chip by maleimide coupling via Cys988; αI variants as analyte, 5 injections at 0.32-26.0 μM; 10 mM HEPES-NaOH pH 7.4, 100 mM NaCl, 5 mM MgCl2; 25 °C; steady-state analysis of maximum RU, apparent KD (saturation not reached). In general terms: SPR reads the build-up and loss of mass on a sensor chip optically.

Assay [2] concerns the target CR3 αI domain (von Willebrand A inserted domain of the αM chain of CR3), residues 126-321, C128S/I316G (human) (UniProt P11215). Kind of assay: SPR; Biacore X100; CR3 αI biotinylated (NHS-PEG4-biotin) and captured on a streptavidin chip, ~900 RU; initial single-concentration injections, then 5 injections of iC3b (0.1-10.0 uM) or C3c (0.7-60.0 uM); 10 mM HEPES-NaOH pH 7.4, 100 mM NaCl, 5 mM MgCl2; 25 °C; steady-state model, saturation not reached, apparent KD.

For assay [3], the target named is human iC3b (human) (UniProt P01024). The assay can be described thus: SPR; Biacore X100; iC3b immobilised on CM5 chip by maleimide chemistry through Cys988; αI variants as analyte (5 injections at 0.32-26.0 uM); 10 mM HEPES-NaOH pH 7.4, 100 mM NaCl, 5 mM MgCl2; 25 °C; steady-state analysis, apparent KD.
In assay [4] the target is C3c (UniProt P01024 955-1303). Kind of assay: SPR; Biacore X100; CR3 αI biotinylated (NHS-PEG4-biotin) and captured on a streptavidin chip, ~900 RU; initial single-concentration injections, then 5 injections of iC3b (0.1-10.0 uM) or C3c (0.7-60.0 uM); 10 mM HEPES-NaOH pH 7.4, 100 mM NaCl, 5 mM MgCl2; 25 °C; steady-state model, saturation not reached, apparent KD. Conditions: both partners purified.

Assay [5] has as its target human iC3b (human) (UniProt P01024). The assay can be described thus: SEC + other: SAXS; iC3b mixed with CR3 αI at 1:2 molar ratio, Superdex 200 10/300 GL, 20 mM HEPES-NaOH pH 7.5, 200 mM NaCl, 5 mM MgCl2; SAXS in continuous-flow batch mode at 4 °C.

As for “CR3 αI domain variant 1A2A (R216A/K231A/R261A/R293A) (from UniProt P11215 142-337) (domain or fragment)”, the Kd in assay [1] was 64.7 µM.

As to “CR3 αI domain variant 1A (R261A/R293A) (from UniProt P11215 142-337) (domain or fragment)”, in assay [1], the Kd worked out at 16.8 µM.

Turning to “CR3 αI domain variant 2A (R216A/K231A) (from UniProt P11215 142-337) (domain or fragment)”, the Kd in assay [1] was found to be 27.5 µM.

With “human iC3b (from UniProt P01024 749-1303) (complex)”, in assay [2], the Kd was determined as 5.2 µM.

B1: CR3 αI domain (von Willebrand A inserted domain of the αM chain of CR3), residues 126-321, C128S/I316G (domain or fragment)
chain: RGSPQEDSDIAFLIDGSGSIIPHDFRRMKEFVSTVMEQLKKSKTLFSLMQYSEEFRIHFTFKEFQNNPNPRSLVKPITQLLGRTHTATGIRKVVRELFNITNGARKNAFKILVVITDGEKFGDPLGYEDVIPEADREGVIRYVIGVGDAFRSEKSRQELNTIASKPPRDHVFQVNNFEALKTIQNQLREKGFAIEG
modifications: NHS-PEG4-biotin on random amine groups (only in the SPR where CR3 αI was captured on the streptavidin chip)
notes: Made in bacteria, so not glycosylated at Asn224; also called WT; not shown: His6, N-terminal, cleaved
As for B1, the Kd is 7.1 µM in assay [3] and about 39 µM in assay [4]. In assay [5], the stoichiometry N amounted to 1.
